The conditions of the data set: Equus caballus, pH 6, 25 °C, Absorbance, cacodylate 0.03 M, reversible: yes.

Values joined by “and” are separate entries in the source; they are usually repeats but may differ in a detail not shown here. Equal entries are not always repeated.

Sequence of Cytochrome c wild type, P00004 (P00004 whole entry): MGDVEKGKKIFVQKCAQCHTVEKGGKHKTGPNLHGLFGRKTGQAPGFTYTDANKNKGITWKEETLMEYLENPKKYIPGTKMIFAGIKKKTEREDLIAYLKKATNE

Take Cytochrome c wild type, P00004: the denaturant m value is 3.31 kcal/mol/M (GdnHCl, KCl 0.1-1.0 M); 1.28 kcal/mol/M (Urea, KCl 0.1-1.0 M); 1.25 kcal/mol/M and 1.37 kcal/mol/M (Urea, KCl 0.1 M). Further, the “denaturant midpoint (higher = more stable)” value (GdnHCl, KCl 0.1-1.0 M) is 2.47 M and the “denaturant midpoint (higher = more stable)” value (Urea, KCl 0.1-1.0 M) was found to be 6.26 M. Moreover, the unfolding free energy by setting is: (GdnHCl, KCl 0.1-1.0 M) 8.18 kcal/mol; (Urea, KCl 0.1-1.0 M) 8.02 kcal/mol.

For the origin of these results see FireProtDB (doi:10.1021/bi982078m).
